Earlier results, collected in paper PMC3433420.
Where two headings read alike, the source gives them in different places.

Key:
Details in all cases: cited from earlier work
CRKL (Homo sapiens) = CRKL (Homo sapiens) (UniProt P46109)
CRK (Homo sapiens) = CRK (Homo sapiens) (UniProt P46108)
RASA1-N (Homo sapiens) = RASA1-N (Homo sapiens) (UniProt P20936)
PIK3R3-NC (Homo sapiens) = PIK3R3-NC (Homo sapiens) (UniProt Q92569)
NCK1 (Homo sapiens) = NCK1 (Homo sapiens) (UniProt P16333)
SH2D3A (Homo sapiens) = SH2D3A (Homo sapiens) (UniProt Q9BRG2)
Chain of SH2D3A (Homo sapiens) (Q9BRG2 10-119): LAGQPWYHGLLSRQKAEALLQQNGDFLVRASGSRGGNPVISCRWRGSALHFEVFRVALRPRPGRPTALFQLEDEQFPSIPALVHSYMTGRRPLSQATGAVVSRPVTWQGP

PLCG1-NC (Homo sapiens) = PLCG1-NC (Homo sapiens) (UniProt P19174)
Chain of PLCG1-NC (Homo sapiens) (P19174 545-761): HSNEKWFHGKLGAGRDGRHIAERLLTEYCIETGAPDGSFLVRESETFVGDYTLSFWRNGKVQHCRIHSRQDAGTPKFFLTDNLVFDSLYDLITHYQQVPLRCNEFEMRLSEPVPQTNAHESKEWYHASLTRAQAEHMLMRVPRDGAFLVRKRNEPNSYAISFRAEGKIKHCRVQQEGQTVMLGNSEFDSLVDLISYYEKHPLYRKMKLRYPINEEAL

SYK-C (Homo sapiens) = SYK-C (Homo sapiens) (UniProt P43405)
GRB7 (Homo sapiens) [1] = biological target: GRB7 (Homo sapiens) (UniProt Q14451)
Chain of GRB7 (Homo sapiens) (Q14451 426-532): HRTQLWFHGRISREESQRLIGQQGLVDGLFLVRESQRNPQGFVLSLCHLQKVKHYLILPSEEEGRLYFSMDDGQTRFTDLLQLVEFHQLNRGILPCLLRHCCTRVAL

SHC2-PTB (Homo sapiens) = SHC2-PTB (Homo sapiens) (UniProt P98077)
Chain of SHC2-PTB (Homo sapiens) (P98077 482-582): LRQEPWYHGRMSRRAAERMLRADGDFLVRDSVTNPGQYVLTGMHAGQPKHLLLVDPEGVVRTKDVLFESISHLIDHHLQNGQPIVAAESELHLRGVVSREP

SHB (Homo sapiens) = SHB (Homo sapiens) (UniProt Q15464)
Chain of SHB (Homo sapiens) (Q15464 405-509): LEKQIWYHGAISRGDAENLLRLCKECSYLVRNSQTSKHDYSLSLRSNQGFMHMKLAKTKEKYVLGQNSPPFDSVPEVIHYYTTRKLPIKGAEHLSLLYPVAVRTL

NCK2 (Homo sapiens) = NCK2 (Homo sapiens) (UniProt O43639)
Chain of NCK2 (Homo sapiens) (O43639 280-380): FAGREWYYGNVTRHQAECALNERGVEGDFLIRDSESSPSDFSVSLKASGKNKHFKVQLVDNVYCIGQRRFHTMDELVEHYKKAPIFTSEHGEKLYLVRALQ

PIK3R1-NC (Homo sapiens) = PIK3R1-NC (Homo sapiens) (UniProt P27986)
Chain of PIK3R1-NC (Homo sapiens) (P27986 328-723): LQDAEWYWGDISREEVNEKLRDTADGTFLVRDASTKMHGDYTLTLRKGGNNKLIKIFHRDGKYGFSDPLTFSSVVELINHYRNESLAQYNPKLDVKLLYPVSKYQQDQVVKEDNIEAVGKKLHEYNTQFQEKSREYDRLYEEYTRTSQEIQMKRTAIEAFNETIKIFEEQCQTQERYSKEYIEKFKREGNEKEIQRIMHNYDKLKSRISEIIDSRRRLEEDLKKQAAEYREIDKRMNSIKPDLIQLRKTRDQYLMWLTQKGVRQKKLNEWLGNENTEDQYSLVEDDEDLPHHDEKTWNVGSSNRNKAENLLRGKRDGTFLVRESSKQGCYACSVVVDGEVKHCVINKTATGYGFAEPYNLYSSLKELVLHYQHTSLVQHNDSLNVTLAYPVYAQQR

BLK (Homo sapiens) = BLK (Homo sapiens) (UniProt P51451)
Chain of BLK (Homo sapiens) (P51451 119-225): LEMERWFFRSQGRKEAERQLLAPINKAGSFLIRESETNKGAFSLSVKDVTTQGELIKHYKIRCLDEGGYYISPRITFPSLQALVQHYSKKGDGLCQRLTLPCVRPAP

GRB7 (Homo sapiens) [2] = biological target: GRB7 (Homo sapiens) (UniProt Q14451); remark: listed apart in the source
RASA1-NC (Homo sapiens) [3] = biological target: RASA1-NC (Homo sapiens) (UniProt P20936)
Chain of RASA1-NC (Homo sapiens) (P20936 176-446): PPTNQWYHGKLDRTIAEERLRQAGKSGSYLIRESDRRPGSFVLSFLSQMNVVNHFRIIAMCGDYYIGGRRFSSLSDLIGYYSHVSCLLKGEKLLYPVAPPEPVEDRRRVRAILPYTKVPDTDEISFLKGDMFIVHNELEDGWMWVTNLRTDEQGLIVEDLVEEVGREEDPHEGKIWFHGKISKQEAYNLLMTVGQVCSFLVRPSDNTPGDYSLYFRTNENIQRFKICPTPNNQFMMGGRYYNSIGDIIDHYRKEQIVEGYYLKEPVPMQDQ

SUPT6H (Homo sapiens) = SUPT6H (Homo sapiens) (UniProt Q7KZ85)
Chain of SUPT6H (Homo sapiens) (Q7KZ85 1320-1436): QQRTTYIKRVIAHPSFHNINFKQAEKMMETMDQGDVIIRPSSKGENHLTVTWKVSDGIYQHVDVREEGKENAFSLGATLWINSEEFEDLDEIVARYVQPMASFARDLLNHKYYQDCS

SLA (Homo sapiens) [4] = biological target: SLA (Homo sapiens) (UniProt Q13239)
Chain of SLA (Homo sapiens) (Q13239 79-180): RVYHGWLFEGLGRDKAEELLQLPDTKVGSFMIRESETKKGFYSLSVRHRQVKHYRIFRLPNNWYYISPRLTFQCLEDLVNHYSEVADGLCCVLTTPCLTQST

FGR (Homo sapiens) = FGR (Homo sapiens) (UniProt P09769)
SOCS2 (Homo sapiens) = SOCS2 (Homo sapiens) (UniProt O14508)
Chain of SOCS2 (Homo sapiens) (O14508 43-161): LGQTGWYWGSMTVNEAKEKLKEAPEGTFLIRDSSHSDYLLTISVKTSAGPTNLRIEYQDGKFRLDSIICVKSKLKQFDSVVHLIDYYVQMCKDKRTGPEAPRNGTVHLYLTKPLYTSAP

PIK3R1-C (Homo sapiens) = PIK3R1-C (Homo sapiens) (UniProt P27986)
Chain of PIK3R1-C (Homo sapiens) (P27986 328-723): as the sequence (P27986 328-723) above

RASA1-NC (Homo sapiens) [5] = biological target: RASA1-NC (Homo sapiens) (UniProt P20936); remark: listed apart in the source
SH2D3C (Homo sapiens) = SH2D3C (Homo sapiens) (UniProt Q8N5H7)
Chain of SH2D3C (Homo sapiens) (Q8N5H7 215-324): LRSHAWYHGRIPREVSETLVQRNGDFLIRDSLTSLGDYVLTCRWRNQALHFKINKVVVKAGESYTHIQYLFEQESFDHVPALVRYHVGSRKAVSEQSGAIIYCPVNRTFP

SRC (Homo sapiens) = SRC (Homo sapiens) (UniProt P12931)
SYK-N (Homo sapiens) = SYK-N (Homo sapiens) (UniProt P43405)
TXK (Homo sapiens) = TXK (Homo sapiens) (UniProt P42681)
Chain of TXK (Homo sapiens) (P42681 145-251): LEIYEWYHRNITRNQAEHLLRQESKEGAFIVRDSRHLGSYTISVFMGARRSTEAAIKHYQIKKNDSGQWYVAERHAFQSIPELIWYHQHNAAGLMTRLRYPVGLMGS

DAPP1 (Homo sapiens) = DAPP1 (Homo sapiens) (UniProt Q9UN19)
Chain of DAPP1 (Homo sapiens) (Q9UN19 30-134): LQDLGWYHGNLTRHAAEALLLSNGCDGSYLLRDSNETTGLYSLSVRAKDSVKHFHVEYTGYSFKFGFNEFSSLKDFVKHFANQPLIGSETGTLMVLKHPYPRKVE

ABL2 (Homo sapiens) = ABL2 (Homo sapiens) (UniProt P42684)
Chain of ABL2 (Homo sapiens) (P42684 168-268): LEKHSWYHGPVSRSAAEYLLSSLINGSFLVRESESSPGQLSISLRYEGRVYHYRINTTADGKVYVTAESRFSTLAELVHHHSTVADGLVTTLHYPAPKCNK

SLA (Homo sapiens) [6] = biological target: SLA (Homo sapiens) (UniProt Q13239); remark: listed apart in the source
ITK (Homo sapiens) = ITK (Homo sapiens) (UniProt Q08881)
Chain of ITK (Homo sapiens) (Q08881 234-343): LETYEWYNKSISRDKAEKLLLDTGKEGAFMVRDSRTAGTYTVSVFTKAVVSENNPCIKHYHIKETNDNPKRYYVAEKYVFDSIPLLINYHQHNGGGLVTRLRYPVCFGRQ

SHC1-PTB (Homo sapiens) = SHC1-PTB (Homo sapiens) (UniProt P29353)
Chain of SHC1-PTB (Homo sapiens) (P29353 483-583): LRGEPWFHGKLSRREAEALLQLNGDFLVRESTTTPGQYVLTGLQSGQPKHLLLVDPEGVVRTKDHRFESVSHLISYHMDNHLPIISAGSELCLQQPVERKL

Chain of CRKL (Homo sapiens) (P46109 9-107): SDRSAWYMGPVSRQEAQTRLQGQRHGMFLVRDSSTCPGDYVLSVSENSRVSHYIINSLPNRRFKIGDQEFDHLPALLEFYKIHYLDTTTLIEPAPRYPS
Chain of CRK (Homo sapiens) (P46108 8-123): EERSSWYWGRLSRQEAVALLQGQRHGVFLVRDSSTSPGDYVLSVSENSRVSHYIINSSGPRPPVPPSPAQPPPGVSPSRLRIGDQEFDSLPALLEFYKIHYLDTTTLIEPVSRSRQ
Chain of RASA1-N (Homo sapiens) (P20936 176-446): as the sequence (P20936 176-446) above

Question: Which results are given for …pYEEMRAFQ?
Answer: apparent Kd (screen) (CRKL (Homo sapiens)): 1250 nM; apparent Kd (screen) (CRK (Homo sapiens)): 1500 nM; apparent Kd (screen) (RASA1-N (Homo sapiens)): 1350 nM; apparent Kd (screen) (PIK3R3-NC (Homo sapiens)): 10 nM

Question: Which apparent Kd (screen) (NCK1 (Homo sapiens)) does the source give for …pYLIPQQGFd here?
Answer: 1000 nM

Question: And the apparent Kd (screen) (SH2D3A (Homo sapiens))?
Answer: 2000 nM

Question: What about the apparent Kd (screen) (PLCG1-NC (Homo sapiens)) of the same substance?
Answer: 794 nM

Question: What about the apparent Kd (screen) (SYK-C (Homo sapiens)) of the same substance?
Answer: 934 nM

Question: And the apparent Kd (screen) (GRB7 (Homo sapiens) [1])?
Answer: 2000 nM

Question: And the apparent Kd (screen) (SHC2-PTB (Homo sapiens))?
Answer: 664 nM

Question: And the apparent Kd (screen) (SHB (Homo sapiens))?
Answer: 1990 nM

Question: What about the apparent Kd (screen) (NCK2 (Homo sapiens)) of the same substance?
Answer: 2000 nM

Question: What about the apparent Kd (screen) (PIK3R1-NC (Homo sapiens)) of the same substance?
Answer: 295 nM

Question: What about the apparent Kd (screen) (BLK (Homo sapiens)) of the same substance?
Answer: 658 nM

Question: With …pYLVPQQGF as the substance, how does the apparent Kd (screen) (GRB7 (Homo sapiens) [2]) read?
Answer: 1800 nM

Question: What about the apparent Kd (screen) (RASA1-NC (Homo sapiens) [3]) of the same substance?
Answer: 2000 nM

Question: And the apparent Kd (screen) (SUPT6H (Homo sapiens))?
Answer: 912 nM

Question: What about the apparent Kd (screen) (SLA (Homo sapiens) [4]) of the same substance?
Answer: 2000 nM

Question: And the apparent Kd (screen) (FGR (Homo sapiens))?
Answer: 2000 nM

Question: And the apparent Kd (screen) (SOCS2 (Homo sapiens))?
Answer: 2000 nM

Question: And the apparent Kd (screen) (PIK3R1-C (Homo sapiens))?
Answer: 2000 nM

Question: And the apparent Kd (screen) (RASA1-NC (Homo sapiens) [5])?
Answer: 1770 nM

Question: For …pYWDQDPPE, which apparent Kd (screen) (SH2D3C (Homo sapiens)) is on record?
Answer: 705 nM

Question: What about the apparent Kd (screen) (SRC (Homo sapiens)) of the same substance?
Answer: 2000 nM

Question: And the apparent Kd (screen) (SYK-N (Homo sapiens))?
Answer: 203 nM

Question: And the apparent Kd (screen) (TXK (Homo sapiens))?
Answer: 2000 nM

Question: What about the apparent Kd (screen) (DAPP1 (Homo sapiens)) of the same substance?
Answer: 2000 nM

Question: And the apparent Kd (screen) (ABL2 (Homo sapiens))?
Answer: 192 nM

Question: And the apparent Kd (screen) (SLA (Homo sapiens) [6])?
Answer: 2000 nM

Question: What about the apparent Kd (screen) (ITK (Homo sapiens)) of the same substance?
Answer: 2000 nM

Question: And the apparent Kd (screen) (SHC1-PTB (Homo sapiens))?
Answer: 614 nM
